Reference: patent publication US20240262899A1 (UNIVERSITY OF VIRGINIA PATENT FOUNDATION, published 2024)

Target: T1, histone H3 (H3) peptide, unmodified (UniProt P68431 2-31)
T1 construct: A synthetic peptide of histone H3, not the whole protein; also called unmodified H3
Test: western blot of peptides
Protocol: Four distinct peptides—histone H3 (H3), citrullinated histone H3 (CitH3; 4 Cit), acetylated histone H3 (AccH3), and methylated histone H3 (MetH3)—at a concentration of 0.5 microgram each, were run in duplicate through SDS-polyacrylamide gel electrophoresis and then transferred to a nitrocellulose membrane (FIG. 7A). This membrane was split into two sections for parallel probing with an equal quantity of Cayman CitH3-mAb (Ann Arbor, MI) or hCitH3-mAb (2 μg/ml) overnight. Post three extensive washes, the sections were incubated with HRP-conjugated secondary antibodies specific to mouse IgG and human IgG (Jackson ImmunoResearch Labs. Cat #309-035-008), respectively, for 2 hours. For concurrent signal development, both membrane sections were exposed simultaneously for the same duration.

B1: Y1128-VH3/VL3 (hCitH3-mAb) (antibody, V domains shown)
VH: EVQVVQSGAEVKKPGATVKISCKASGFNIKDYYMHWMKQRPEQGLEWIGWIDPENGNTIYDPKFQGRATITSDTSTDTAYLELSSLRSEDTAVYYCAPFGNYVWFAYWGQGTLVTVSS
VL: DVLMTQSPLSLPVTLGQPASISCRSSQSIVHSNGITYLEWYLQRPGQSPKLLIYKVSNRFSGVPDRFSGSGSGTDFTLKISRVEAEDVGLYYCFQGSHVPFTFGQGTKLEIKR
notes: Final lead humanized antibody; intact IgG, detected with anti-human IgG secondary; also called H3L3; humanized CitH3 monoclonal antibody
- binding result: no binding (tested: 2 ug/ml antibody; 0.5 microgram peptide)
